Measurements reported in patent publication US20200216495A1 (ADRX, published 2020).
Square brackets hold non-standard residues; d marks the D form. Ends that are not written are not given here. Tam = not defined here

B1: Tam-RRRRRRRRRR-GGSGG-tlkivw (peptide)
peptide: Tam-RRRRRRRRRRGGSGG[dT][dL][dK][dI][dV][dW]
modifications: reading uncertain; also: printed as Tam-RRRRRRRRRR-GGSGG-tlkivw
B2: Tam-RRRRRRRRRR-GGSGG-lelkikfw (peptide)
peptide: Tam-RRRRRRRRRRGGSGG[dL][dE][dL][dK][dI][dK][dF][dW]
modifications: reading uncertain; also: printed as Tam-RRRRRRRRRR-GGSGG-lelkikfw
B3: Tam-RRRRRRRRRR-GGSGG-wkvqvrlw (peptide)
peptide: Tam-RRRRRRRRRRGGSGG[dW][dK][dV][dQ][dV][dR][dL][dW]
modifications: reading uncertain; also: printed as Tam-RRRRRRRRRR-GGSGG-wkvqvrlw
B4: Tam-RRRRRRRRR-GGSGG-wrlkvrww (peptide)
peptide: Tam-RRRRRRRRRGGSGG[dW][dR][dL][dK][dV][dR][dW][dW]
modifications: reading uncertain; also: printed as Tam-RRRRRRRRR-GGSGG-wrlkvrww
B5: Tam-[…]-GGSGG-wrlkvrww (peptide)
peptide: Tam-YGRKKRRQRRRGGSGG[dW][dR][dL][dK][dV][dR][dW][dW]
modifications: reading uncertain
B6: RRRRRRRRRR-GGSGG-wrlkvrww (peptide)
peptide: RRRRRRRRRRGGSGG[dW][dR][dL][dK][dV][dR][dW][dW]
B7: RRRRRRRRR-GGSGG-wriwiryw (peptide)
peptide: RRRRRRRRRGGSGG[dW][dR][dI][dW][dI][dR][dY][dW]
B8: RRRRRRRRRR-GGSGG-elkivw (peptide)
peptide: RRRRRRRRRRGGSGG[dE][dL][dK][dI][dV][dW]
B9: RRRRRRRRRR-GGSGG-wkvqvrlw (peptide)
peptide: RRRRRRRRRRGGSGG[dW][dK][dV][dQ][dV][dR][dL][dW]
B10: RRRRRRRRRR-GGSGG-tlkivw (peptide)
peptide: RRRRRRRRRRGGSGG[dT][dL][dK][dI][dV][dW]
B11: RRRRRRRRRR-GGSGG-lelkikfw (peptide)
peptide: RRRRRRRRRRGGSGG[dL][dE][dL][dK][dI][dK][dF][dW]

What follows are binders tested against Tau40 P301L protein (human) (assay: cell-based or functional assay).

Row | Binder | IC50, Tau40 assay-Modified peptides (ThT)
1 | B1 | 4.92 µM
2 | B2 | 8.71 µM
3 | B3 | 5.53 µM
4 | B4 | 20.5 µM
5 | B5 | 6.6 µM

Target: T1, His-Tau40 P301L Tau fibrils (human)
T1 chain: RLRIRW
Test: cell-based or functional assay

Row | Binder | EC50, HEK cell assay (TauRD(P301S) split luciferase, seeded with tau fibrils)
6 | B1 | 3.6 µM
7 | B2 | 12.1 µM
8 | B3 | 1.5 µM
9 | B4 | 1.5 µM
10 | B6 | 1.7 µM
11 | B5 | 1.8 µM

Target: T1, His-Tau40 P301L Tau fibrils
Test: cell-based or functional assay
Remark: another data set of the same source

Row | Binder | EC50, HEK cell assay (TauRD(P301S) split luciferase, seeded with tau fibrils)
12 | B7 | 0.9 µM
13 | B8 | 11.7 µM
14 | B9 | 2.1 µM
15 | B10 | 2.9 µM
16 | B6 | 2.3 µM
17 | B11 | 16.4 µM
